Results as given in patent US7544477B2, “Circularly permutated, interaction-activated proteins” (KaloBios, Inc., priority 2000, dated 2009).

Columns and labels:
[1] = biological target: hetero-dimerizing leucine zipper helix from the c-jun subunit of the AP-1 transcription factor; assay: cell-based or functional assay
[2] = tested on: TG1 cells; assay: Activation of TEM-1 β-lactamase fragment complementation by disulfide-assisted fos-jun interaction (plating on ampicillin); type: cell-based, E. coli; conditions: without a stabilizing peptide; same expression conditions
Method: Cysteines were added to the sequences of α197 and ω198, between the break-point termini and the linkers leading to the heterologous interactors.
Disulfide formation was made to be more dependent on the heterologous interaction by two modifications. First, disulfide formation can be inhibited by inclusion of a reducing agent in the growth medium. […] Secondly, the cysteines were shifted by one residue each away form the break-point and into the β-lactamase sequence, so that they became separated in the native fold by an additional ˜8 Å.

Chain of hetero-dimerizing leucine zipper helix from the c-jun subunit of the AP-1 transcription factor (P05412 280-308): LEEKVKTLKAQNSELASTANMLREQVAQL

hetero-dimerizing leucine zipper helix from the c-fos subunit of the AP-1 transcription factor (peptide)
Hi Amp (max ampicillin with >10% plating), break-point A227/G228, +Fos/Jun [1]: 50 µg/mL | Hi Amp (max ampicillin with >10% plating), break-point A227/G228, +S-S, +Fos/Jun [1]: 200 µg/mL | Hi Amp (max ampicillin with >10% plating), break-point E63/E64, +S-S, +Fos/Jun [1]: 25 µg/mL | Hi Amp (max ampicillin with >10% plating), break-point E197/L198, +Fos/Jun [1]: 50 µg/mL | Hi Amp (max ampicillin with >10% plating), break-point E197/L198, +S-S, +Fos/Jun [1]: 100 µg/mL | Hi Amp (max ampicillin with >10% plating), break-point G253/K254, +Fos/Jun [1]: 50 µg/mL | Hi Amp (max ampicillin with >10% plating), break-point G253/K254, +S-S, +Fos/Jun [1]: 400 µg/mL | Hi Amp (max ampicillin with >10% plating), break-point K215/V216, +Fos/Jun [1]: 25 µg/mL | Hi Amp (max ampicillin with >10% plating), break-point K215/V216, +S-S, +Fos/Jun [1]: 100 µg/mL | Hi Amp (max ampicillin with >10% plating), break-point N52/S53, +S-S, +Fos/Jun [1]: 25 µg/mL | Hi Amp (max ampicillin with >10% plating), break-point P174/N175, +Fos/Jun [1]: 50 µg/mL | Hi Amp (max ampicillin with >10% plating), break-point P174/N175, +S-S, +Fos/Jun [1]: 200 µg/mL | Hi Amp (max ampicillin with >10% plating), break-point Q99/N100, +S-S, +Fos/Jun [1]: 25 µg/mL | activation index, break-point P174/N175, fos-jun with disulfide [1]: 1e+07 | activation index, α197/ω198 with break-point cysteines, 10 mM DTT, 100 µg/ml ampicillin [1]: > 1000 fold | activation index, α197/ω198 with cysteines shifted by one residue, 50 µg/ml ampicillin [1]: > 100000 | ampicillin concentration of recovery, α197/ω198 with break-point tri-peptides, strain DH5α [1]: 800 µg/mL | ampicillin concentration of recovery, α197/ω198 with break-point tri-peptides, strain TG1 [1]: 400 µg/mL | plating efficiency on 25 µg/ml ampicillin, wild-type α197-jun + fos-ω198 [1]: 30% | plating efficiency on 50 µg/ml ampicillin, α197-fos + jun-ω198 alone [1]: 1% | plating efficiency on 50 µg/ml ampicillin, α197-fos + jun-ω198 with GRE-trxA in trans [1]: 100% | plating efficiency on 50 µg/ml ampicillin, α197/ω198 with cysteines shifted by one residue [1]: 10% | plating efficiency on 100 µg/ml ampicillin, wild-type α197-jun + fos-ω198 (colonies per cell) [1]: < 1e-06 | plating efficiency on 400 µg/ml ampicillin, break-point G253/K254, fos-jun with disulfide [1]: > 25%

B1: wild-type TEM-1 β-lactamase: intact TEM-1 β-lactamase of E. coli (protein, UniProt P62593 24-286, looked up)
Beta-lactamase TEM: HPETLVKVKDAEDQLGARVGYIELDLNSGKILESFRPEERFPMMSTFKVLLCGAVLSRVDAGQEQLGRRIHYSQNDLVEYSPVTEKHLTDGMTVRELCSAAITMSDNTAANLLLTTIGGPKELTAFLHNMGDHVTRLDRWEPELNEAIPNDERDTTMPAAMATTLRKLLTGELLTLASRQQLIDWMEADKVAGPLLRSALPAGWFIADKSGAGERGSRGIIAALGPDGKPSRIVVIYTTGSQATMDERNRQIAEIGASLIKHW
Ampicillin concentration on which cells plate [2]: ≤ 1000 µg/mL
